This note sets out measurements from patent US9044511B2, “Peptide” (Marealis AS, priority 2010, dated 2015).

The target of experiment [1] is T1, ACE (Sigma A 6778) (Oryctolagus cuniculus, UniProt P12822).
T1 construct: purchased Sigma A 6778
T1 sequence (P12822 34-1310): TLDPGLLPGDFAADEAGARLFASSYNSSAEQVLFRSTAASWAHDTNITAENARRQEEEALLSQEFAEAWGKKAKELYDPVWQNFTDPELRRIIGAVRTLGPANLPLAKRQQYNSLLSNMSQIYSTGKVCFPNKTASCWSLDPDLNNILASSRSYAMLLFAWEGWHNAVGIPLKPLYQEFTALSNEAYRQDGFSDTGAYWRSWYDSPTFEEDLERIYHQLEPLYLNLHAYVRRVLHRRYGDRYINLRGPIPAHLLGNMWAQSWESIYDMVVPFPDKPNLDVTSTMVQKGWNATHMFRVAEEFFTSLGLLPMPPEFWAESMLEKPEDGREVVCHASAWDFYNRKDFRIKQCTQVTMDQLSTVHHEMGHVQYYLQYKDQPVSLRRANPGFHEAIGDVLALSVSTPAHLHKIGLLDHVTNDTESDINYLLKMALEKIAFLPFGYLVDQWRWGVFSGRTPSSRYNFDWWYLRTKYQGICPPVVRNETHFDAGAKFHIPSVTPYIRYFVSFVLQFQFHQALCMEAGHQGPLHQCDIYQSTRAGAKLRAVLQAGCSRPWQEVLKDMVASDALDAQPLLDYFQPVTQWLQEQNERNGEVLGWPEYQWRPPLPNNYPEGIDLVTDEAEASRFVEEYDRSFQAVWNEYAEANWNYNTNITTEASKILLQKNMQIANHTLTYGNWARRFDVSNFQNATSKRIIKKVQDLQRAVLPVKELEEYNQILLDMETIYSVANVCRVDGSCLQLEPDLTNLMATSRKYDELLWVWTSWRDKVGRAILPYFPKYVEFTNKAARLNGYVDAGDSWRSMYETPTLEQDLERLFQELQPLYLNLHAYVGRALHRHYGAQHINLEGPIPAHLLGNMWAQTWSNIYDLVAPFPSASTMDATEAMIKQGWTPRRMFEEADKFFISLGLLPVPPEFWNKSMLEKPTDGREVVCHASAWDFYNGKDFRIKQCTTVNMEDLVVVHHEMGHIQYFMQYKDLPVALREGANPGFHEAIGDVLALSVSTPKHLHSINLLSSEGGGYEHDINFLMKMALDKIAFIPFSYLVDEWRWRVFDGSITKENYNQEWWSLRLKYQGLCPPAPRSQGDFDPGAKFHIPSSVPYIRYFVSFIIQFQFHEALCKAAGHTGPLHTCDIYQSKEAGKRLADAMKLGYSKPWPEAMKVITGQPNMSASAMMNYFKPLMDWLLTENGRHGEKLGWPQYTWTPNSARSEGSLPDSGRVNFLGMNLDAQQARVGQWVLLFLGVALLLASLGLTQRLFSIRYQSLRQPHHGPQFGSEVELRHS
Description: ACE-inhibitory activity, HHL substrate, hippuric acid by HPLC (method of Dragnes et al. / Cushman and Cheung). It is filed as biochemical. From the text:
ACE-inhibitory activity may be assayed using known methods, for example based on the method reported by Cushman and Cheung (1971) by measuring the end product hippuric acid (HA) from the enzymatic reaction between ACE (Sigma A 6778) and the substrate HHL (Sigma H 1635). (CUSHMAN, D. W. & CHEUNG, H. S. (1971). Concentrations of Angiotensin-Converting Enzyme in Tissues of Rat. Biochimica Et Biophysica Acta 250(1), 261-265 and Dragnes et al. J Food Composition and Analysis 2009; 22: 714-17). A different suitable assay is disclosed by Vermeirssen et al. (2002), J. Biochem Biophys. Methods 51 (2002), pages 75-87, which is incorporated herein by reference. Briefly, this is a spectrophotometric method in which ACE inhibition is measured using the substrate furanacryloyl-Phe-Gly-Gly and rabbit lung acetone extract as the ACE source. The IC50 may be determined.
An FSY peptide was analysed via an enzyme assay wherein ACE produces hippuric acid (HA) from the substrate hippuryl-histidine-leucine (HHL). The HA concentration was determined by quantitative HPLC analyses and a decreased concentration was correlated with inhibitory effect. ACE-inhibitory activity was determined based on the method reported by Cushman and Cheung (1971) by measuring the end product hippuric acid (HA) from the enzymatic reaction between ACE (Sigma A 6778) and the substrate HHL (Sigma H 1635), essentially as described in Dragnes et al. J Food Composition and Analysis 2009; 22: 714-17. A 100 μl volume with 2 mM HHL in 100 mM sodium borate buffer pH 8,3 was pre-incubated at 37° C. for 30 minutes with 25 μl inhibitor (FSY peptide diluted in Sodium borate buffer). Then the assay was initiated by adding 50 μl ACE (10 mU). The enzymatic reaction was stopped by addition of 215 μl 1 M HCl.
Quantitative HPLC analyses were performed on a Shimadzu (Shimadzu Corporation, Japan), using a Symmetry-Shield reverse phase C-18 Intelligent Speed column. The HA was eluted at ambient temperature using a mobile phase that consisted of 0.05% aqueous trifluoroacetic acid and HPLC-grade acetonitrile. A 2 min linear gradient was used, beginning after 0.5 min isocratic elution with 5% acetonitrile and ending with 90% acetonitrile. The flow-rate was maintained at 2 mL min ? 7 1 and the UV absorption was measured at 228 nm.
Determinations of IC50 values depend on the precise assay conditions, which makes it difficult to make meaningful comparisons between IC50 values determined in separate assays. A comparative analysis was therefore carried out to compare the ACE-inhibitory activity of the FSY peptide to known ACE-inhibitory peptides. ACE-inhibitory activity was assayed using the method of Dragnes et al. described in Example 1.

The target of experiment [2] is T2, Angiotensin I-converting enzyme (ACE) (Sigma A 6778) (UniProt P12822 34-1310, limits assumed).
T2 sequence (looked up): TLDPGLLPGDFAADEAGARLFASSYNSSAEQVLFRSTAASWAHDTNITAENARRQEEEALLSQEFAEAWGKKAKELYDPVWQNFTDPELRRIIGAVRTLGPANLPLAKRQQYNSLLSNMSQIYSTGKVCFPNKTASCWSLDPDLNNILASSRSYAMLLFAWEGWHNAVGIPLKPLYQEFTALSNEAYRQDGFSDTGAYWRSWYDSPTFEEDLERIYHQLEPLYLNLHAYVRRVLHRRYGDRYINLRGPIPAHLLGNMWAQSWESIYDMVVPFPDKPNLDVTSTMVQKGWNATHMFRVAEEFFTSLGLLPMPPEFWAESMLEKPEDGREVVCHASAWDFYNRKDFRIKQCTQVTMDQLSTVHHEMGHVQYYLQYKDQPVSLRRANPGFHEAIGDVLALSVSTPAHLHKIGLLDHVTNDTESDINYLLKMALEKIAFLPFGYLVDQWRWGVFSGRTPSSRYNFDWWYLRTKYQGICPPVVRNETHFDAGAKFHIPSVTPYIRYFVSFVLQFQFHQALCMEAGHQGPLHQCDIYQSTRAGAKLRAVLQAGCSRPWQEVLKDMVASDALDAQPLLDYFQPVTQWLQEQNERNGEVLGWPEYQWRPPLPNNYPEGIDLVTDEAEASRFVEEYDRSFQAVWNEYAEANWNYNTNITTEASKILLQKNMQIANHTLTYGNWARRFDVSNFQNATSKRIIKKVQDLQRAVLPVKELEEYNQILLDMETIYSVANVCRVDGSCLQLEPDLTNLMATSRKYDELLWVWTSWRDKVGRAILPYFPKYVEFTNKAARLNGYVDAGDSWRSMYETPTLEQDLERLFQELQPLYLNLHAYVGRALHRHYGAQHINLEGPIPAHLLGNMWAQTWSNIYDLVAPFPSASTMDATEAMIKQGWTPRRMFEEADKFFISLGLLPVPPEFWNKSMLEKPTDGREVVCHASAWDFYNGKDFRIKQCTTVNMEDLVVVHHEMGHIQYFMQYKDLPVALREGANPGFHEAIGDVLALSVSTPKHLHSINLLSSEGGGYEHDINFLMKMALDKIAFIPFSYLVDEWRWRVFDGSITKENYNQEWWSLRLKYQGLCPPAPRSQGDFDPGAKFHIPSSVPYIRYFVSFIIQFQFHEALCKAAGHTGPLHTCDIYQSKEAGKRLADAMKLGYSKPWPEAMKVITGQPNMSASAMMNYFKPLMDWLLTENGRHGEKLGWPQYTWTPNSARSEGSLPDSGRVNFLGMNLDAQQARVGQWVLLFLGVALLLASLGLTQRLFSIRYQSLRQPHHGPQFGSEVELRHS
The experiment in a line: cell-based or functional assay.

In experiment [3] the target is T3, ACE from rabbit lung acetone extract (rabbit, UniProt P12822 34-1310, limits assumed).
T3 sequence (looked up): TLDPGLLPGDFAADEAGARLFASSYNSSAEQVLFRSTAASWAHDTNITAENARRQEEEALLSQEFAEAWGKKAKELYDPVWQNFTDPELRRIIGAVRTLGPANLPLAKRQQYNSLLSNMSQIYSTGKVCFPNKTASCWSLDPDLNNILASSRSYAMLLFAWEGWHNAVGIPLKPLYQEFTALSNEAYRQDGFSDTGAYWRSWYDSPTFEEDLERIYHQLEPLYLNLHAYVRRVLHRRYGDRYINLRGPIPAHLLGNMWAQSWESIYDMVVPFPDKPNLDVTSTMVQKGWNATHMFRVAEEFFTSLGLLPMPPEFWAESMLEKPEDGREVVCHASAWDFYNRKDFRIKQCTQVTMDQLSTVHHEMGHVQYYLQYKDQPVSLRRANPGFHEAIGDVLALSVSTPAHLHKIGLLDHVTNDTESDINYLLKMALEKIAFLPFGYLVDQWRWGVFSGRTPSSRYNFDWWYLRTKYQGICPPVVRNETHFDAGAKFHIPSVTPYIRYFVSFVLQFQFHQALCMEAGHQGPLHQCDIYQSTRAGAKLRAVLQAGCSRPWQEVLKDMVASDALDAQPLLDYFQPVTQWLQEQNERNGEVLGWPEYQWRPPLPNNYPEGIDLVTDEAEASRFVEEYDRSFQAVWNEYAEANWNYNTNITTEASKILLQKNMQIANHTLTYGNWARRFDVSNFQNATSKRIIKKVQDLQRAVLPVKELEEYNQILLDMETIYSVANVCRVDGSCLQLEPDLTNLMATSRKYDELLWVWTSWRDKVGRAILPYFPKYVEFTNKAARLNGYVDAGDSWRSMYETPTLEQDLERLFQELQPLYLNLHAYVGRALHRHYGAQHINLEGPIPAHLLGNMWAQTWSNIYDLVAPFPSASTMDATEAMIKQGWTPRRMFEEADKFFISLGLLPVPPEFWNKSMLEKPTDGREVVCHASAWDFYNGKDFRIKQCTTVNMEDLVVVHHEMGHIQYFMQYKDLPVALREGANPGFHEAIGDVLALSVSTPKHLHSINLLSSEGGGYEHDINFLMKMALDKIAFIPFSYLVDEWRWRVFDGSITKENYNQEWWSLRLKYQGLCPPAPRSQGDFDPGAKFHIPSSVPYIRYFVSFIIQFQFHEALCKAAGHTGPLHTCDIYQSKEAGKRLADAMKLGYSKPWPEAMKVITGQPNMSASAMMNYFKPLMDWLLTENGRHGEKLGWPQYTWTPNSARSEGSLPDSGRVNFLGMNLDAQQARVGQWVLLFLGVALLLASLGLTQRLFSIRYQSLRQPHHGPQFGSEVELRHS
The experiment in a line: cell-based or functional assay.

The target of experiment [4] is T2, Angiotensin I-converting enzyme (ACE) …. The experiment in a line: cell-based or functional assay. The source holds these as a separate data set.
The mark [5] stands for this setting: comparative analysis, read-out: IC50 in μg/ml (converted).

Values joined by “and” are separate entries in the source; they are usually repeats but may differ in a detail not shown here. Identical values can stand only once. Like-named read-outs stand apart in the source and are kept apart here. Peptide text beside a SMILES is read from it.

For `CC(C)[C@H](N)C(=O)N[C@@H](Cc1ccc(O)cc1)C(=O)O` [VY, reference compound] (H-Val-Tyr-OH; N-terminus and C-terminus assumed), the IC50 in experiment [1] (setting [5]) was 12800 nM.

On to `N[C@@H](Cc1ccccc1)C(=O)N[C@@H](CO)C(=O)N[C@@H](Cc1ccc(O)cc1)C(=O)O` [FSY] (H-Phe-Ser-Tyr-OH; N-terminus and C-terminus assumed), for which the IC50 in experiment [1] (comparative analysis, read-out: IC50) is 2200 nM; in experiment [1] (setting [5]) it was 2170 nM; in experiment [1] (typical measurements, read-out: IC50 with respect to ACE inhibition, method of Dragnes et al.), approximately 2200 nM.

B1: IPP (peptide)
peptide: IPP
B1: in experiment [2], the “IC50 in µM (ACE inhibition, method of Dragnes et al.)” value came to 3.2 µM and the “IC50 in µg/ml (ACE inhibition, method of Dragnes et al.)” value stood at 1.04 µg/mL.

B2: FSY peptide (peptide)
peptide: FSY
On to B2, for which, in experiment [2], the “IC50 in µM (ACE inhibition, method of Dragnes et al.)” value came to 2.2 µM and the “IC50 in µg/ml (ACE inhibition, method of Dragnes et al.)” value turned out to be 0.9 µg/mL. In addition, the “IC50 of ACE inhibition (method of Vermeirssen et al.)” value in experiment [3] is approximately 7.7 µM. In addition, in experiment [4], the “IC50 of ACE inhibition (hippuric acid from HHL, HPLC; method of Dragnes et al.)” value was ~4 µM and 1.7 µM and ~2.2 µM.

B3: VY (peptide)
peptide: VY
Take B3: in experiment [2], the “IC50 in µM (ACE inhibition, method of Dragnes et al.)” value worked out at 13 µM and the “IC50 in µg/ml (ACE inhibition, method of Dragnes et al.)” value was 3.6 µg/mL.

B4: FTY peptide (peptide)
peptide: FTY
For the molecule B4, in experiment [3], the “IC50 of ACE inhibition (method of Vermeirssen et al.)” value is approximately 274 µM. Besides, the “IC50 of ACE inhibition (method of Dragnes et al.)” value in experiment [4] was approximately 59 µM.
